The values below come from patent US20240207421A1, “NERVE TARGETING PEPTIDES AND METHODS OF USE” (ALUME BIOSCIENCES, INC., priority 2020, published 2024).

The experiment deals with Laminin 421/521. The experiment can be described thus: phage display, NGS count.
SWQMRSY registered a Count of 48.

As to TFAAAQAELIMV, the Count is 38.

Molecule GPKNHHQ showed a Count of 51.

LGPSTQGAGQTR had a Count of 38.

SDRGKTVLHGQI showed a Count of 54.

The molecule ETYKVTRVISPW came in with a Count of 50.

In turn, VPVFLDQARVMK yielded a Count of 53.

HASNQRV had a Count of 93.

CTGRISKHC had a Count of 43.

ATSKYPNSWAQT came in with a Count of 80.

LARSSIMAANNV returned a Count of 42.

Consider GQPRNIHLPGTH, for which the Count was 40.

CTSKLARHC came in with a Count of 45.

In turn, GDLWNVP yielded a Count of 51.

The molecule GHPWTEIDFMSS registered a Count of 50.

CWSGNSRSC registered a Count of 42.

SNPKHVSSLGQM gave a Count of 40.

Molecule GEPLTRFPNSDS had a Count of 52.

The molecule GSGFRNEEHSAH showed a Count of 51.

Molecule CSVWNSGNC returned a Count of 43.

Molecule CKWTQLWGC returned a Count of 40.

The molecule LLAGPFR had a Count of 44.

Regarding GWIQDTFVLGRS, the Count was determined as 40.

SFRNLEKLSLWS gave a Count of 50.

Take WTKHNTPAHHLS: the Count was determined as 89.

In turn, GDLLLKR had a Count of 47.

With AWNGNRS, the Count worked out at 47.

RAQAHQV yielded a Count of 51.

Regarding ADMPQMTLKYGV, the Count worked out at 47.

QTLQTRH yielded a Count of 44.

KPILWNRSLNAL returned a Count of 52.

As for DRLTPITWDWSR, the Count was determined as 86.

Take CFQPKMNSC: the Count was 42.

CNHLTQKLC yielded a Count of 45.

With YHLGPNQKMRTS, the Count worked out at 48.

With FPLKIRT, the Count worked out at 42.

Consider AQGVWWSEWFAP, for which the Count was found to be 42.

In turn, YTPRNQL registered a Count of 55.

Molecule NNNAAMQNHGVR gave a Count of 51.

KQELSDNLASHR registered a Count of 50.

Consider HSFLGAR, for which the Count was determined as 44.

In turn, SGWEGKTHQGVR came in with a Count of 69.

Molecule GSLDMGNNKQPV displayed a Count of 62.

EGHVWSEYTWGT displayed a Count of 50.

Molecule DGQVSDHSYVQW showed a Count of 101.

Molecule VPQIRIK yielded a Count of 47.

The molecule GRTIHSM displayed a Count of 95.

AKTQAPSNWSGV: the Count worked out at 43.

In turn, GFADVIHRKWSS gave a Count of 53.

Consider GGGYHIFGPLVT, for which the Count turned out to be 43.

Turning to WGANTTGRTHGG, the Count was determined as 40.

In turn, QGHPFIY registered a Count of 40.

SLAVANTRFMIR: the Count was 49.

ASHSRPLMNYAP: the Count was found to be 49.

The molecule WEEHRVEILPDV yielded a Count of 38.

CGITQTTTC returned a Count of 55.

ALGGEPRKAYQR displayed a Count of 45.

With ANRYLAS, the Count was found to be 40.

In turn, LQSNAADHHQGM yielded a Count of 75.

HQSLAGVPWSRH registered a Count of 53.

In turn, EYWHQRGSWFHR displayed a Count of 55.

In turn, DDLLTAPRLGVW came in with a Count of 54.

WPVRNLL yielded a Count of 67.

The molecule GAMMNSNNLVAR showed a Count of 43.

For CSLANPATC, the Count turned out to be 52.

The molecule RLVTASMVSPSF gave a Count of 95.

CLKDTHLNC registered a Count of 40.

In turn, GSTTHPHFGLPG yielded a Count of 40.

For QTRWDDGSYQIS, the Count is 49.

The molecule CHQRQQTYC came in with a Count of 55.

Take WAFKAPQ: the Count was found to be 61.
